Assay results published in US20120023600A1 (Novartis, published 2012).

T1: recombinant human DKK1 (human, UniProt O94907 32-266)
T1 sequence: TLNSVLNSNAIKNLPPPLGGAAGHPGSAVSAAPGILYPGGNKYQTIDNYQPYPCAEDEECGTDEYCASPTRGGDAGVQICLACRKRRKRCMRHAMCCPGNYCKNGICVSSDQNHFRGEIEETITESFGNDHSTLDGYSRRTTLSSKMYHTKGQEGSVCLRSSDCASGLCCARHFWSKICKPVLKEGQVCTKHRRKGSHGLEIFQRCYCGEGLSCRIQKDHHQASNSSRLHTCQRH

T2: DKK1-APP (human, UniProt O94907 32-266)
T2 sequence: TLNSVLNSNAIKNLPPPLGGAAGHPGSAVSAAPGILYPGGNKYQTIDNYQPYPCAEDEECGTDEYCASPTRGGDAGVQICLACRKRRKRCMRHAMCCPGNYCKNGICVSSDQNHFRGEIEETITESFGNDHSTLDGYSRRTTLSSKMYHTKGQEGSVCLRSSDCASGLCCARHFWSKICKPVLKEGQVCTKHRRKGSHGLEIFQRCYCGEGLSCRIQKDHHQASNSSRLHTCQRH

T3: biotinylated human DKK1 (human, UniProt O94907 32-266, biotinylated (sites not given))
T3 construct: also called biotinylated DKK1; human recombinant, biotinylated DKK1
T3 sequence: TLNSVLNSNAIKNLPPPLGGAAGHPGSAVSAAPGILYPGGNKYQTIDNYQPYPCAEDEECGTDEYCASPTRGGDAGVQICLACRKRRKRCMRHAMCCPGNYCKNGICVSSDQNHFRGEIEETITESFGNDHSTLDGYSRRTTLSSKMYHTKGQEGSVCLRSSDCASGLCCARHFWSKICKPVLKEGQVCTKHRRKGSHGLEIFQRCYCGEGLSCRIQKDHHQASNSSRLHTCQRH

T4: mouse DKK1 (R&D Systems) (mouse, UniProt O54908 32-272)
T4 construct: Bought protein
T4 sequence (looked up): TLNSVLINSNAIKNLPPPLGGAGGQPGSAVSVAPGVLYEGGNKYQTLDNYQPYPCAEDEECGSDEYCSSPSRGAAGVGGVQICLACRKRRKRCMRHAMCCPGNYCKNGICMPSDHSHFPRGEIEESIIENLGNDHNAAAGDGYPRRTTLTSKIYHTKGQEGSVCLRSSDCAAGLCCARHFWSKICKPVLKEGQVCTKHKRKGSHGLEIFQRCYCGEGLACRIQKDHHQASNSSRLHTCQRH

T5: cynomolgus DKK1 (cynomolgus monkey (Macaca fascicularis), UniProt A0A7N9IE82 32-266)
T5 construct: also called cyno DKK1; monkey DKK1 (Novartis)
T5 sequence: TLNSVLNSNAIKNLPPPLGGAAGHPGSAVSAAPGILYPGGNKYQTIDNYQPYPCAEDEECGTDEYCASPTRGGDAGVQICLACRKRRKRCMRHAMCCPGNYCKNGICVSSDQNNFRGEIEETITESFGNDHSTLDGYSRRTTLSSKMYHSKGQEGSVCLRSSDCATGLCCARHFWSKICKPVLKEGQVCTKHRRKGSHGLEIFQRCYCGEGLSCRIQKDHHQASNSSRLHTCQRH


Legend:
recombinant human DKK1 [1] = biological target: T1, recombinant human DKK1; assay: cell-based or functional assay
DKK1-APP [2] = biological target: T2, DKK1-APP; assay: cell-based or functional assay
biotinylated human DKK1 = biological target: T3, biotinylated human DKK1; assay: ELISA, biotinylated DKK1 on Neutravidin plates, Fab 1 ug/ml, anti-FLAG-AP detection; single measurement
Description: Binding specificity of the matured Fabs in the presence of 50% human serum (HS) is determined. […] After coating of the antigen, wells are blocked with TBS/0.05% Tween (TBS-T) supplemented with 1% BSA for 1 h at room temperature. Purified Fabs described above are diluted either in TBS/4% BSA or TBS/50% HS at a final concentration of 1 μg/ml, added to the coated and blocked wells and the plates are incubated for 1 h at room temperature. For detection, an anti-FLAG alkaline phosphatase (AP)-conjugated antibody (1:5000 dilution in TBST) and the fluorogenic substrate AttoPhos (Roche) are used. After each incubation, the wells of the microtiter plates are washed with TBST five times, except after the final incubation step with the labeled secondary antibody when wells are washed three times.
The fluorescence is measured in a TECAN Spectrafluor plate reader.

mouse DKK1 (R&D Systems) [3] = biological target: T4, mouse DKK1 (R&D Systems); assay: solution equilibrium titration (SET), ECL (BioVeris), Fab
Description: (§1) Electrochemiluminescence (ECL) based affinity determination in solution and data evaluation are basically performed as described by Haenel et al., 2005. […] Subsequently, the concentration of unbound Fab is quantified by ECL detection using the M-SERIES® 384 analyzer (BioVeris Europe).
(§2) Affinities are calculated according to Haenel et al., 2005 Anal Biochem 339.1:182-184.

cynomolgus DKK1 [4] = biological target: T5, cynomolgus DKK1; assay: as above
Description: as §1, §2

recombinant human DKK1 [5] = biological target: T1, recombinant human DKK1; assay: as above
Description: as §1, §2

DKK1-APP [6] = biological target: T2, DKK1-APP; assay: cell-based or functional assay; remark: listed apart in the source
DKK1-APP [7] = biological target: T2, DKK1-APP; assay: cell-based or functional assay; remark: listed apart in the source
mouse DKK1 (R&D Systems) [8] = biological target: T4, mouse DKK1 (R&D Systems); assay: SPR (Biacore), DKK1 immobilised on CM5 chip, Fab as analyte
Description: (§3) Using these clones, kinetic SPR analysis is performed on a. […] The Fab preparations are applied in concentration series of 16-500 nM at a flow rate of 20 μl/min. Association phase is set to 60 s and dissociation phase to 120 s.

cynomolgus DKK1 [9] = biological target: T5, cynomolgus DKK1; assay: as above
Description: as §3

recombinant human DKK1 [10] = biological target: T1, recombinant human DKK1; assay: as above
Description: as §3

mouse DKK1 (R&D Systems) [11] = biological target: T4, mouse DKK1 (R&D Systems); assay: as above; remark: listed apart in the source
Description: as §3

cynomolgus DKK1 [12] = biological target: T5, cynomolgus DKK1; assay: as above; remark: listed apart in the source
Description: as §3

recombinant human DKK1 [13] = biological target: T1, recombinant human DKK1; assay: as above; remark: listed apart in the source
Description: as §3

mouse DKK1 (R&D Systems) [14] = biological target: T4, mouse DKK1 (R&D Systems); assay: as above; remark: listed apart in the source
Description: as §3

cynomolgus DKK1 [15] = biological target: T5, cynomolgus DKK1; assay: as above; remark: listed apart in the source
Description: as §3

recombinant human DKK1 [16] = biological target: T1, recombinant human DKK1; assay: as above; remark: listed apart in the source
Description: as §3

Binder	TCF/LEF luc assay w/Kremen: EC50 (recombinant human DKK1 [1]) [nM]	Luciferase reporter assay w/o Kremen; Activity in 15% Human serum (%) (DKK1-APP [2])	Binding activity w/50% Human serum vs 4% BSA (%) (biotinylated human DKK1)	Kd (mouse DKK1 (R&D Systems) [3]) [nM]	Kd (cynomolgus DKK1 [4]) [nM]	Kd (recombinant human DKK1 [5]) [nM]	EC50 (DKK1-APP [6]) [nM]	Luciferase reporter assay; EC50 (DKK1-APP [7]) [nM]	Kd (mouse DKK1 (R&D Systems) [8]) [nM]	Kd (cynomolgus DKK1 [9]) [nM]	Kd (recombinant human DKK1 [10]) [nM]	Kd (mouse DKK1 (R&D Systems) [11]) [nM]	Kd (cynomolgus DKK1 [12]) [nM]	Kd (recombinant human DKK1 [13]) [nM]	Kd (mouse DKK1 (R&D Systems) [14]) [nM]	Kd (cynomolgus DKK1 [15]) [nM]	Kd (recombinant human DKK1 [16]) [nM]
MOR04461 (Fab, V domains shown, Fab with C-terminal FLAG and 6xHis tags) VH: QVQLVESGGGLVQPGGSLRLSCAASGFTFSSYWMSWVRQAPGKGLEWVSGISYSGSNTHYADSVKGRFTISRDNSKNTLYLQMNSLRAEDTAVYYCARMGIDLDYWGQGTLVTVSS VL: DIALTQPASVSGSPGQSITISCTGTSSDVGGFNYVSWYQQHPGKAPKLMIHDGSNRPSGVSNRFSGSKSGNTASLTISGLQAEDEADYYCSTWDMTVDFVFGGGTKLTVLG							57	57	12.8	7.3	7.6	12.8	7.3	7.6	12.8	7.3	7.6
MOR04456 (Fab, V domains shown, Fab with C-terminal FLAG and 6xHis tags) VH: QVQLVESGGGLVQPGGSLRLSCAASGFTFNNYGMTWVRQAPGKGLEWVSGISGSGSYTYYADSVKGRFTISRDNSKNTLYLQMNSLRAEDTAVYYCARTIYMDYWGQGTLVTVSS VL: DIVLTQSPATLSLSPGERATLSCRASQNLFSPYLAWYQQKPGQAPRLLIYGASNRATGVPARFSGSGSGTDFTLTISSLEPEDFATYYCQQYGDEPITFGQGTKVEIKR							95	95	11.6	8.1	7.9	11.6	8.1	7.9	11.6	8.1	7.9
MOR04907 (Fab, V domains shown) VH: QVQLVESGGGLVQPGGSLRLSCAASGFTFNNYGMTWVRQAPGKGLEWVSGISGSGSYTYYADSVKGRFTISRDNSKNTLYLQMNSLRAEDTAVYYCARTIYMDYWGQGTLVTVSS VL: DIVLTQSPATLSLSPGERATLSCRASQNLFSPYLAWYQQKPGQAPRLLIYGASNRATGVPARFSGSGSGTDFTLTISSLEPEDFAVYYCQQYLSLPTTFGQGTKVEIKR	0.9	54	> 83	0.167	0.17	0.114											
MOR04516 (Fab, V domains shown, Fab with C-terminal FLAG and 6xHis tags; also called MOR4516) VH: QVQLVQSGAEVKKPGESLKISCKGSGYSFTNYYIGWVRQMPGKGLEWMGIIYPTDSYTNYSPSFQGQVTISADKSISTAYLQWSSLKASDTAMYYCARGIPFRMRGFDYWGQGTLVTVSS VL: DIVLTQPPSVSGAPGQRVTISCSGSSSNIGSSFVNWYQQLPGTAPKLLIGNNSNRPSGVPDRFSGSKSGTSASLAITGLQSEDEADYYCASFDMGSPNVVFGGGTKLTVLG							42	42	2.4	1.9	2.6	2.4	1.9	2.6	2.4	1.9	2.6
MOR04454 (Fab, V domains shown, Fab with C-terminal FLAG and 6xHis tags) VH: QVQLVESGGGLVQPGGSLRLSCAASGFTFSNYGLHWVRQAPGKGLEWVSSISYYGSSTYYADSVKGRFTISRDNSKNTLYLQMNSLRAEDTAVYYCARDGSHMDKPPGYVFAFWGQGTLVTVSS VL: DIQMTQSPSSLSASVGDRVTITCRASQGIKNYLNWYQQKPGKAPKLLIGAASSLQSGVPSRFSGSGSGTDFTLTISSLQPEDFATYYCLQYYGMPPTFGQGTKVEIKR							83	83	6	2.7	3.2	6	2.7	3.2	6	2.7	3.2

Other lines, results leading:

TCF/LEF luc assay w/Kremen: EC50 (recombinant human DKK1 [1]) [nM]	Luciferase reporter assay w/o Kremen; Activity in 15% Human serum (%) (DKK1-APP [2])	Binding activity w/50% Human serum vs 4% BSA (%) (biotinylated human DKK1)	Kd (mouse DKK1 (R&D Systems) [3]) [nM]	Kd (cynomolgus DKK1 [4]) [nM]	Kd (recombinant human DKK1 [5]) [nM]	EC50 (DKK1-APP [6]) [nM]	Luciferase reporter assay; EC50 (DKK1-APP [7]) [nM]	Kd (mouse DKK1 (R&D Systems) [8]) [nM]	Kd (cynomolgus DKK1 [9]) [nM]	Kd (recombinant human DKK1 [10]) [nM]	Kd (mouse DKK1 (R&D Systems) [11]) [nM]	Kd (cynomolgus DKK1 [12]) [nM]	Kd (recombinant human DKK1 [13]) [nM]	Kd (mouse DKK1 (R&D Systems) [14]) [nM]	Kd (cynomolgus DKK1 [15]) [nM]	Kd (recombinant human DKK1 [16]) [nM]	Binder
1.1	80	83	0.2	0.14	0.094												MOR04914 (Fab, V domains shown) VH: QVQLVESGGGLVQPGGSLRLSCAASGFTFSSYWMSWVRQAPGKGLEWVSVISSDSSSTYYADSVKGRFTISRDNSKNTLYLQMNSLRAEDTAVYYCARHGIDFDHWGQGTLVTVSS VL: DIALTQPASVSGSPGQSITISCTGTSSDLGGYNYVSWYQQHPGKAPKLMIYDVNNRPSGVSNRFSGSKSGNTASLTISGLQAEDEADYYCQSYTYTPISPVFGGGTKLTVLG
0.7	26	93															MOR04921 (Fab, V domains shown) VH: QVQLVESGGGLVQPGGSLRLSCAASGFTFSSYWMSWVRQAPGKGLEWVSGISYSGSNTHYADSVKGRFTISRDNSKNTLYLQMNSLRAEDTAVYYCARMGIDLDYWGQGTLVTVSS VL: DIALTQPASVSGSPGQSITISCTGTSSDVGGFNYVSWYQQHPGKAPKLMIHDGSNRPSGVSNRFSGSKSGNTASLTISGLQAEDEADYYCQTWATSPLSSVFGGGTKLTVLG
1.3	55	> 83	0.036	0.112	0.11												MOR04954 (Fab, V domains shown) VH: QVQLVESGGGLVQPGGSLRLSCAASGFTFSSYWMSWVRQAPGKGLEWVSVIEHKDKGGTTYYAASVKGRFTISRDNSKNTLYLQMNSLRAEDTAVYYCARHGIDFDHWGQGTLVTVSS VL: DIALTQPASVSGSPGQSITISCTGTSSDLGGYNYVSWYQQHPGKAPKLMIYDVNNRPSGVSNRFSGSKSGNTASLTISGLQAEDEADYYCQSYASGNTKVVFGGGTKLTVLG
